The data set relates to Escherichia coli TOP10. As to the kind of experiment: shrunken log2 fold change of peptide-encoding DNA abundance (4.5 h post-induction vs induction); higher = less antimicrobial activity (less host growth inhibition). As to conditions: time post-induction: 4.5 h; library: site-saturation at positions 5, 18, 19, 20.
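Further: peptides expressed intracellularly from a pBAD plasmid library in pooled LB shake-flask culture, induced with 0.3% L-arabinose, DNA abundance read by NGS, three biological replicates, DESeq2 with apeglm shrinkage.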

As for RRIRARPPRLPRPRPRPCSFPRP, the “shrunken log2 fold change” value worked out at 0.134.

RRIRERPPRLPRPRPRPDWLPRP: the “shrunken log2 fold change” value is 0.00866.

Regarding RRIRGRPPRLPRPRPRPHCCPRP, the “shrunken log2 fold change” value came to 0.0841.

On to RRIRRRPPRLPRPRPRPNDDPRP, for which the “shrunken log2 fold change” value is 0.0687.

Turning to RRIRNRPPRLPRPRPRPVKKPRP, the “shrunken log2 fold change” value is -0.0236.

As to RRIRIRPPRLPRPRPRPHNTPRP, the “shrunken log2 fold change” value was -0.961.

On to RRIRTRPPRLPRPRPRPKSLPRP, for which the “shrunken log2 fold change” value is -0.291.

Turning to RRIRVRPPRLPRPRPRPKFWPRP, the “shrunken log2 fold change” value came to 0.48.

RRIRMRPPRLPRPRPRPKKNPRP: the “shrunken log2 fold change” value turned out to be 1.46.

For RRIRIRPPRLPRPRPRPEPLPRP, the “shrunken log2 fold change” value is 0.0641.

On to RRIRFRPPRLPRPRPRPIAMPRP, for which the “shrunken log2 fold change” value was found to be 0.091.

For RRIRCRPPRLPRPRPRPLPHPRP, the “shrunken log2 fold change” value stood at 0.102.

With RRIRQRPPRLPRPRPRPSGMPRP, the “shrunken log2 fold change” value is -0.143.

For RRIRCRPPRLPRPRPRPESLPRP, the “shrunken log2 fold change” value is -0.11.

Take RRIRSRPPRLPRPRPRPAAGPRP: the “shrunken log2 fold change” value came out at 0.585.

Consider RRIRFRPPRLPRPRPRPDRNPRP, for which the “shrunken log2 fold change” value is -0.182.

On to RRIRVRPPRLPRPRPRPMCQPRP, for which the “shrunken log2 fold change” value is -0.0733.

Turning to RRIRKRPPRLPRPRPRPSNQPRP, the “shrunken log2 fold change” value was -0.018.

As to RRIRERPPRLPRPRPRPETPPRP, the “shrunken log2 fold change” value amounted to 0.784.

In the case of RRIRYRPPRLPRPRPRPLEWPRP, the “shrunken log2 fold change” value came out at 0.00157.

As for RRIRDRPPRLPRPRPRPDTNPRP, the “shrunken log2 fold change” value is -0.0518.

In the case of RRIRYRPPRLPRPRPRPHTSPRP, the “shrunken log2 fold change” value was -1.04.

Consider RRIRCRPPRLPRPRPRPACAPRP, for which the “shrunken log2 fold change” value is 0.433.

With RRIRGRPPRLPRPRPRPKLMPRP, the “shrunken log2 fold change” value was 1.

For RRIRCRPPRLPRPRPRPGHSPRP, the “shrunken log2 fold change” value is -0.347.

Turning to RRIRSRPPRLPRPRPRPKLPPRP, the “shrunken log2 fold change” value was -0.0678.

As to RRIRYRPPRLPRPRPRPGIKPRP, the “shrunken log2 fold change” value is -0.311.

Take RRIRWRPPRLPRPRPRPEWDPRP: the “shrunken log2 fold change” value worked out at 1.22.

RRIRDRPPRLPRPRPRPFALPRP: the “shrunken log2 fold change” value came out at 0.206.

As for RRIRKRPPRLPRPRPRPIKMPRP, the “shrunken log2 fold change” value was found to be 0.0326.

For RRIRTRPPRLPRPRPRPTPDPRP, the “shrunken log2 fold change” value was found to be 0.306.

Regarding RRIRARPPRLPRPRPRPSHMPRP, the “shrunken log2 fold change” value was -0.184.

As to RRIRERPPRLPRPRPRPENIPRP, the “shrunken log2 fold change” value was -0.227.

As to RRIRFRPPRLPRPRPRPHDVPRP, the “shrunken log2 fold change” value is -0.00911.

As for RRIRDRPPRLPRPRPRPFANPRP, the “shrunken log2 fold change” value was -0.177.

As to RRIRHRPPRLPRPRPRPMPMPRP, the “shrunken log2 fold change” value stood at 0.0326.

As to RRIRRRPPRLPRPRPRPGQRPRP, the “shrunken log2 fold change” value stood at 0.386.

As to RRIRRRPPRLPRPRPRPLGAPRP, the “shrunken log2 fold change” value came to 0.468.

Regarding RRIRPRPPRLPRPRPRPIFAPRP, the “shrunken log2 fold change” value turned out to be 0.33.

For RRIRHRPPRLPRPRPRPQLQPRP, the “shrunken log2 fold change” value came out at 0.0457.

As for RRIRKRPPRLPRPRPRPRMKPRP, the “shrunken log2 fold change” value was determined as 0.346.

For the sequence RRIRARPPRLPRPRPRPYVIPRP, the “shrunken log2 fold change” value is -0.434.

Take RRIRNRPPRLPRPRPRPGILPRP: the “shrunken log2 fold change” value is -0.337.

RRIRTRPPRLPRPRPRPPALPRP: the “shrunken log2 fold change” value was found to be 0.311.

For RRIRIRPPRLPRPRPRPAHSPRP, the “shrunken log2 fold change” value is -0.0596.

As for RRIRMRPPRLPRPRPRPYSNPRP, the “shrunken log2 fold change” value was -0.834.

Regarding RRIRNRPPRLPRPRPRPTSRPRP, the “shrunken log2 fold change” value was -0.129.

Consider RRIRVRPPRLPRPRPRPNVGPRP, for which the “shrunken log2 fold change” value came to 0.00661.

Take RRIRRRPPRLPRPRPRPSPSPRP: the “shrunken log2 fold change” value came to 0.386.

In the case of RRIRDRPPRLPRPRPRPCRVPRP, the “shrunken log2 fold change” value came out at 0.0479.

On to RRIRYRPPRLPRPRPRPAKRPRP, for which the “shrunken log2 fold change” value was 0.167.

In the case of RRIRYRPPRLPRPRPRPWGEPRP, the “shrunken log2 fold change” value was -0.102.

As for RRIRQRPPRLPRPRPRPMFVPRP, the “shrunken log2 fold change” value was 0.493.

Turning to RRIRGRPPRLPRPRPRPKAMPRP, the “shrunken log2 fold change” value was determined as 0.147.

As to RRIRYRPPRLPRPRPRPVEVPRP, the “shrunken log2 fold change” value is -0.282.

Take RRIRVRPPRLPRPRPRPWQRPRP: the “shrunken log2 fold change” value came out at 0.0171.

On to RRIRTRPPRLPRPRPRPAHCPRP, for which the “shrunken log2 fold change” value is -0.168.

As to RRIRNRPPRLPRPRPRPACMPRP, the “shrunken log2 fold change” value came out at 0.0165.

On to RRIRVRPPRLPRPRPRPKERPRP, for which the “shrunken log2 fold change” value worked out at 0.0774.

On to RRIRYRPPRLPRPRPRPITIPRP, for which the “shrunken log2 fold change” value is -0.149.

Turning to RRIRARPPRLPRPRPRPRMNPRP, the “shrunken log2 fold change” value worked out at 0.183.

In the case of RRIRRRPPRLPRPRPRPKVPPRP, the “shrunken log2 fold change” value is -0.0226.

RRIRDRPPRLPRPRPRPPGGPRP: the “shrunken log2 fold change” value was 1.07.

Take RRIRRRPPRLPRPRPRPFGHPRP: the “shrunken log2 fold change” value is 0.0281.

For RRIRYRPPRLPRPRPRPDLIPRP, the “shrunken log2 fold change” value is -0.302.

Consider RRIRHRPPRLPRPRPRPTLAPRP, for which the “shrunken log2 fold change” value worked out at 0.382.

Take RRIRNRPPRLPRPRPRPIEFPRP: the “shrunken log2 fold change” value is -0.235.

For RRIRERPPRLPRPRPRPQETPRP, the “shrunken log2 fold change” value is 0.0209.

As to RRIRRRPPRLPRPRPRPAKRPRP, the “shrunken log2 fold change” value amounted to 0.863.

Regarding RRIRARPPRLPRPRPRPLTMPRP, the “shrunken log2 fold change” value came to 0.637.

Regarding RRIRHRPPRLPRPRPRPMSDPRP, the “shrunken log2 fold change” value came to 0.00234.

Take RRIRWRPPRLPRPRPRPQSWPRP: the “shrunken log2 fold change” value was 0.302.

As to RRIRYRPPRLPRPRPRPRWDPRP, the “shrunken log2 fold change” value was -0.0245.

In the case of RRIRSRPPRLPRPRPRPLTGPRP, the “shrunken log2 fold change” value turned out to be 0.043.

In the case of RRIRHRPPRLPRPRPRPWENPRP, the “shrunken log2 fold change” value came to 0.0621.

Consider RRIRCRPPRLPRPRPRPTWHPRP, for which the “shrunken log2 fold change” value came to 0.00453.

As for RRIRMRPPRLPRPRPRPFNNPRP, the “shrunken log2 fold change” value is -0.296.

On to RRIRWRPPRLPRPRPRPSLLPRP, for which the “shrunken log2 fold change” value came to 0.0919.

For the sequence RRIRCRPPRLPRPRPRPKSAPRP, the “shrunken log2 fold change” value was found to be 0.146.

RRIRCRPPRLPRPRPRPSVMPRP: the “shrunken log2 fold change” value stood at 0.445.

In the case of RRIRHRPPRLPRPRPRPMETPRP, the “shrunken log2 fold change” value is -0.0865.

With RRIRARPPRLPRPRPRPMGRPRP, the “shrunken log2 fold change” value turned out to be 0.275.

For RRIRARPPRLPRPRPRPKYAPRP, the “shrunken log2 fold change” value was 0.354.

In the case of RRIRERPPRLPRPRPRPVHVPRP, the “shrunken log2 fold change” value was -0.389.

Take RRIRVRPPRLPRPRPRPTVSPRP: the “shrunken log2 fold change” value is -0.131.

Take RRIRYRPPRLPRPRPRPSKGPRP: the “shrunken log2 fold change” value is -0.203.

For RRIRHRPPRLPRPRPRPMMFPRP, the “shrunken log2 fold change” value is -0.18.

As to RRIRERPPRLPRPRPRPIYSPRP, the “shrunken log2 fold change” value was -0.413.

For RRIRHRPPRLPRPRPRPWLTPRP, the “shrunken log2 fold change” value is -0.00695.

For the sequence RRIRARPPRLPRPRPRPPLVPRP, the “shrunken log2 fold change” value was 0.626.

Regarding RRIRYRPPRLPRPRPRPFNCPRP, the “shrunken log2 fold change” value was -0.362.

For the sequence RRIRVRPPRLPRPRPRPGDPPRP, the “shrunken log2 fold change” value was determined as 0.172.

For the sequence RRIRQRPPRLPRPRPRPQAVPRP, the “shrunken log2 fold change” value amounted to 0.00748.

For RRIRPRPPRLPRPRPRPAPRPRP, the “shrunken log2 fold change” value was found to be 0.992.

Regarding RRIRHRPPRLPRPRPRPRRAPRP, the “shrunken log2 fold change” value was 0.21.

For the sequence RRIRERPPRLPRPRPRPPRVPRP, the “shrunken log2 fold change” value came to 0.342.

For RRIRKRPPRLPRPRPRPAMTPRP, the “shrunken log2 fold change” value was 0.596.

Take RRIRQRPPRLPRPRPRPMVHPRP: the “shrunken log2 fold change” value is -0.0226.

In the case of RRIRDRPPRLPRPRPRPHTIPRP, the “shrunken log2 fold change” value was -0.351.

For the sequence RRIRVRPPRLPRPRPRPSMNPRP, the “shrunken log2 fold change” value turned out to be 0.331.

Consider RRIRYRPPRLPRPRPRPGCEPRP, for which the “shrunken log2 fold change” value amounted to 0.0164.

Turning to RRIRCRPPRLPRPRPRPDCEPRP, the “shrunken log2 fold change” value is -0.0299.

For the sequence RRIRFRPPRLPRPRPRPFPQPRP, the “shrunken log2 fold change” value is -0.173.

Take RRIRMRPPRLPRPRPRPISTPRP: the “shrunken log2 fold change” value came to 0.166.

As for RRIRIRPPRLPRPRPRPIRFPRP, the “shrunken log2 fold change” value was -1.35.

Take RRIRHRPPRLPRPRPRPDYRPRP: the “shrunken log2 fold change” value was -0.127.

Take RRIRVRPPRLPRPRPRPTDQPRP: the “shrunken log2 fold change” value was -0.0162.

As to RRIRHRPPRLPRPRPRPQPSPRP, the “shrunken log2 fold change” value amounted to 0.111.

RRIRFRPPRLPRPRPRPMRHPRP: the “shrunken log2 fold change” value stood at 0.0162.

RRIRVRPPRLPRPRPRPQQYPRP: the “shrunken log2 fold change” value is -0.258.

On to RRIRRRPPRLPRPRPRPDQGPRP, for which the “shrunken log2 fold change” value is -0.0712.

As to RRIRMRPPRLPRPRPRPREVPRP, the “shrunken log2 fold change” value is 1.8.

As for RRIRKRPPRLPRPRPRPSVFPRP, the “shrunken log2 fold change” value is 0.244.

On to RRIRMRPPRLPRPRPRPELHPRP, for which the “shrunken log2 fold change” value came out at 0.397.

Consider RRIRYRPPRLPRPRPRPGFGPRP, for which the “shrunken log2 fold change” value is -0.0613.

Consider RRIRPRPPRLPRPRPRPTRIPRP, for which the “shrunken log2 fold change” value is 0.105.

As to RRIRDRPPRLPRPRPRPYHHPRP, the “shrunken log2 fold change” value was -0.0229.

On to RRIRCRPPRLPRPRPRPHWMPRP, for which the “shrunken log2 fold change” value was -0.371.

Regarding RRIRLRPPRLPRPRPRPVKSPRP, the “shrunken log2 fold change” value is -0.075.

With RRIRIRPPRLPRPRPRPPWCPRP, the “shrunken log2 fold change” value was 1.45.

With RRIRKRPPRLPRPRPRPRLEPRP, the “shrunken log2 fold change” value turned out to be 0.782.

RRIRRRPPRLPRPRPRPQASPRP: the “shrunken log2 fold change” value amounted to 0.0463.

Regarding RRIRIRPPRLPRPRPRPHIIPRP, the “shrunken log2 fold change” value was -0.614.

RRIRQRPPRLPRPRPRPWRYPRP: the “shrunken log2 fold change” value was 0.0785.

Consider RRIRIRPPRLPRPRPRPYKPPRP, for which the “shrunken log2 fold change” value was -0.0367.

(Values after the supplement of paper PMC9112550, “Optimization of the antimicrobial peptide Bac7 by deep mutational scanning” (BMC Biology, 2022).)
